For the test, the target named is T1, 弓形虫重组SAG1蛋白(表面膜抗原1) (Toxoplasma gondii, UniProt P13664 48-306, limits assumed).
T1 construct: The vector tag (pET28a, Ni-NTA purified) is not described; In the BLI programme the loading step is called biotinylated antigen, but the sensor is APS; also called SAG1-m; SAG1重组抗原
T1 sequence (looked up): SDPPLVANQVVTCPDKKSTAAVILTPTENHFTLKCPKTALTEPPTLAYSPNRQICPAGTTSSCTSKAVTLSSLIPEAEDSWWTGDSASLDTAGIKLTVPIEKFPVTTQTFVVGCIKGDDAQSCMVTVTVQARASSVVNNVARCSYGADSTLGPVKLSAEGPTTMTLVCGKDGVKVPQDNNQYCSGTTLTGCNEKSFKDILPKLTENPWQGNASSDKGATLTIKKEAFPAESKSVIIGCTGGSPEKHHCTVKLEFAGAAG
In words: BLI (ForteBio Octet Red), SAG1 on APS sensor, nanobody at 6.25-100 nM.

B1: 1号克隆株抗SAG1纳米抗体 (VHH)
VHH: HVQLVESGGGSVQAGGSLKLSCTASGYTSNNNCMAWYRQAPGKEPEGVAGIDSEGTTRYADSVKGRFTISKDNAKNTLYLQMNSLKPEDTGMYYCGAGPDRPARCQYDVWGQGTQVTVSS
notes: Tags or fusion parts from the vectors are not described; also called SAG1-1; 一号克隆株抗SAG1纳米抗体
As for B1, the Kd stood at 1.66 nM.

Usually Kd stands for a measure of binding affinity in units of concentration. Lower therefore signals higher affinity.

Source of the values: CN108503707A (ZHEJIANG ACAD MEDICAL SCIENCES, dated 2018).
